# The MegaScale stability set (Tsuboyama et al. 2023)
# B1: EHEE_rd4_0086 (parent)
# chain: EIHIRTNGEEQARKVYKMLAKRNYDVKIEQHNGQWVVTAS
# B2: EHEE_rd2_0601 (parent)
# chain: TYTYKLTDEEASRRAEDEWRNRGYDVRVRNNNGTWEVEVR
# Variants of: B1
# Assay: folding stability dG (cDNA display proteolysis); higher = more stable
# Details: PBS, room temperature
row,Variant,folding stability dG [kcal/mol]
1,ESHIRTNGEEQARKVYKMLAKRNYDVKIEQHNGQWVVTAS,0.144
2,EHHIRTNGEEQARKVYKMLAKRNYDVKIEQHNGQWVVTAS,0.983
3,EWHIRTNGEEQARKVYKMLAKRNYDVKIEQHNGQWVVTAS,2.36
4,EKHIRTNGEEQARKVYKMLAKRNYDVKIEQHNGQWVVTAS,0.769
5,EAHIRTNGEEQARKVYKMLAKRNYDVKIEQHNGQWVVTAS,0.327
6,EPHIRTNGEEQARKVYKMLAKRNYDVKIEQHNGQWVVTAS,0.357
7,EGHIRTNGEEQARKVYKMLAKRNYDVKIEQHNGQWVVTAS,-0.001
8,EYHIRTNGEEQARKVYKMLAKRNYDVKIEQHNGQWVVTAS,1.65
9,EMHIRTNGEEQARKVYKMLAKRNYDVKIEQHNGQWVVTAS,1.38
10,ELHIRTNGEEQARKVYKMLAKRNYDVKIEQHNGQWVVTAS,1.61
11,EQHIRTNGEEQARKVYKMLAKRNYDVKIEQHNGQWVVTAS,0.226
12,ETHIRTNGEEQARKVYKMLAKRNYDVKIEQHNGQWVVTAS,0.864
13,EVHIRTNGEEQARKVYKMLAKRNYDVKIEQHNGQWVVTAS,1.42
14,ERHIRTNGEEQARKVYKMLAKRNYDVKIEQHNGQWVVTAS,0.978
15,EFHIRTNGEEQARKVYKMLAKRNYDVKIEQHNGQWVVTAS,2.2
16,EEHIRTNGEEQARKVYKMLAKRNYDVKIEQHNGQWVVTAS,0.258
17,EDHIRTNGEEQARKVYKMLAKRNYDVKIEQHNGQWVVTAS,0.01
18,ENHIRTNGEEQARKVYKMLAKRNYDVKIEQHNGQWVVTAS,0.024
19,GIHIRTNGEEQARKVYKMLAKRNYDVKIEQHNGQWVVTAS,1.84

row,Variant,folding stability dG [kcal/mol]
1,NIHIRTNGEEQARKVYKMLAKRNYDVKIEQHNGQWVVTAS,1.8
2,IIHIRTNGEEQARKVYKMLAKRNYDVKIEQHNGQWVVTAS,2.48
3,PIHIRTNGEEQARKVYKMLAKRNYDVKIEQHNGQWVVTAS,1.91
4,KIHIRTNGEEQARKVYKMLAKRNYDVKIEQHNGQWVVTAS,2.3
5,RIHIRTNGEEQARKVYKMLAKRNYDVKIEQHNGQWVVTAS,2.29
6,QIHIRTNGEEQARKVYKMLAKRNYDVKIEQHNGQWVVTAS,2.17
7,YIHIRTNGEEQARKVYKMLAKRNYDVKIEQHNGQWVVTAS,2.5
8,VIHIRTNGEEQARKVYKMLAKRNYDVKIEQHNGQWVVTAS,2.47
9,WIHIRTNGEEQARKVYKMLAKRNYDVKIEQHNGQWVVTAS,2.55
10,FIHIRTNGEEQARKVYKMLAKRNYDVKIEQHNGQWVVTAS,2.51
11,SIHIRTNGEEQARKVYKMLAKRNYDVKIEQHNGQWVVTAS,2.08
12,AIHIRTNGEEQARKVYKMLAKRNYDVKIEQHNGQWVVTAS,2.08
13,TIHIRTNGEEQARKVYKMLAKRNYDVKIEQHNGQWVVTAS,2.31
14,DIHIRTNGEEQARKVYKMLAKRNYDVKIEQHNGQWVVTAS,1.72
15,LIHIRTNGEEQARKVYKMLAKRNYDVKIEQHNGQWVVTAS,2.37
16,HIHIRTNGEEQARKVYKMLAKRNYDVKIEQHNGQWVVTAS,2.46
17,MIHIRTNGEEQARKVYKMLAKRNYDVKIEQHNGQWVVTAS,2.29
18,EIQIRTNGEEQARKVYKMLAKRNYDVKIEQHNGQWVVTAS,2.06
19,EISIRTNGEEQARKVYKMLAKRNYDVKIEQHNGQWVVTAS,2

row,Variant,folding stability dG [kcal/mol]
1,EIMIRTNGEEQARKVYKMLAKRNYDVKIEQHNGQWVVTAS,2.23
2,EIRIRTNGEEQARKVYKMLAKRNYDVKIEQHNGQWVVTAS,2.4
3,EIIIRTNGEEQARKVYKMLAKRNYDVKIEQHNGQWVVTAS,2.81
4,EIKIRTNGEEQARKVYKMLAKRNYDVKIEQHNGQWVVTAS,2.26
5,EIPIRTNGEEQARKVYKMLAKRNYDVKIEQHNGQWVVTAS,0.072
6,EIDIRTNGEEQARKVYKMLAKRNYDVKIEQHNGQWVVTAS,0.614
7,EIFIRTNGEEQARKVYKMLAKRNYDVKIEQHNGQWVVTAS,2.2
8,EIWIRTNGEEQARKVYKMLAKRNYDVKIEQHNGQWVVTAS,2.12
9,EILIRTNGEEQARKVYKMLAKRNYDVKIEQHNGQWVVTAS,2.14
10,EIEIRTNGEEQARKVYKMLAKRNYDVKIEQHNGQWVVTAS,2
11,EINIRTNGEEQARKVYKMLAKRNYDVKIEQHNGQWVVTAS,1.67
12,EIYIRTNGEEQARKVYKMLAKRNYDVKIEQHNGQWVVTAS,2.36
13,EIGIRTNGEEQARKVYKMLAKRNYDVKIEQHNGQWVVTAS,0.661
14,EIAIRTNGEEQARKVYKMLAKRNYDVKIEQHNGQWVVTAS,1.64
15,EITIRTNGEEQARKVYKMLAKRNYDVKIEQHNGQWVVTAS,2.41
16,EIVIRTNGEEQARKVYKMLAKRNYDVKIEQHNGQWVVTAS,2.85
17,EIHERTNGEEQARKVYKMLAKRNYDVKIEQHNGQWVVTAS,-0.06
18,EIHARTNGEEQARKVYKMLAKRNYDVKIEQHNGQWVVTAS,0.01
19,EIHDRTNGEEQARKVYKMLAKRNYDVKIEQHNGQWVVTAS,-0.257

# Variants of: B2
# Assay: as above
# Details: PBS, room temperature
row,Variant,folding stability dG [kcal/mol]
1,TYTYKLTDEEASRRAEDEWRNRGYDVRVRNNNGTWEVEVV,1.32
2,TYTYKLTDEEASRRAEDEWRNRGYDVRVRNNNGTWEVEVQ,1.09
3,TYTYKLTDEEASRRAEDEWRNRGYDVRVRNNNGTWEVEVT,1.54
4,TYTYKLTDEEASRRAEDEWRNRGYDVRVRNNNGTWEVEVW,1.8
5,TYTYKLTDEEASRRAEDEWRNRGYDVRVRNNNGTWEVEVS,1.71
6,TYTYKLTDEEASRRAEDEWRNRGYDVRVRNNNGTWEVEVY,1.59
